Reference: PMC548348

Biological target: hnRNP A2 (recombinant) (Homo sapiens, UniProt P22626-2 1-341)
Assay: UV-cross-linking EMSA, competition

GCCAAGGAGCC (ssRNA) [A2RE11]
binding result: binds
